Converted amounts (≈) assume the structure as drawn. Like-named read-outs stand apart in the source and are kept apart here.
Columns and labels:
[1] = test system: T1, E. coli DH10B carrying KPC-2-Tn4401a-pET28a; test: microbe, parasite or virus in culture; set-up: species or system E. coli DH10B or K. pneumoniae; CLSI standard broth microdilution MIC in triplicate, median values; details: Escherichia coli
T1 construct: DH10B full-length blaKPC-2 under Tn4401a promoter in pET28a
Source text: (§1) The blaKPC amplicons (full length) were cloned into the Tn4401a-pET28a plasmid between the BamHI (as the 5′ end upstream) and XbaI (as the 3′ end downstream) restriction sites, which is the opposite direction of conventional induced expression for removing the His-tag expression. This insertion was downstream of the blaKPC Tn4401a promoter. The Tn4401a promoter was inserted between the EcoRI and BamHI sites. KPC expression was achieved by inserting the natural promoter Tn4401a upstream of the blaKPC gene, thus avoiding the use of the pET-28a vector’s T7 promoter and the resulting His-tag fusion. E. coli DH10B strains containing the generated KPCs-Tn4401a-pET28a plasmid underwent antimicrobial susceptibility testing in triplicate using the standard broth microdilution, following the Clinical and Laboratory Standards Institute (CLSI) recommendations (CLSI M100-S34) .

[2] = test system: T2, E. coli DH10B carrying KPC-3-Tn4401a-pET28a; test: microbe, parasite or virus in culture; set-up: species or system E. coli DH10B or K. pneumoniae; CLSI standard broth microdilution MIC in triplicate, median values; details: Escherichia coli
T2 construct: DH10B full-length blaKPC-3 under Tn4401a promoter in pET28a
Source text: as §1

[3] = test system: T3, Klebsiella pneumoniae Kpn with KPC-3; test: microbe, parasite or virus in culture; set-up: species or system E. coli DH10B or K. pneumoniae; CLSI standard broth microdilution MIC in triplicate, median values
T3 construct: K. pneumoniae producing KPC-3, positive control

E. coli DH10B = test system: T4, E. coli DH10B; test: microbe, parasite or virus in culture; set-up: species or system E. coli DH10B or K. pneumoniae; CLSI standard broth microdilution MIC in triplicate, median values; details: Escherichia coli
T4 construct: DH10B empty plasmid control
Source text: as §1, with “M100-S34) . Klebsiella pneumoniae expressing KPC-3 and E. coli DH10B containing an empty plasmid served as positive and negative controls, respectively.” for “M100-S34) .”

[4] = test system: CC(C)(O/N=C(\C(=O)N[C@@H]1C(=O)N2C(C(=O)[O-])=C(C[n+]3ccccc3)CS[C@H]12)c1csc(N)n1)C(=O)O; test: purified protein; details: 100 mM sodium phosphate, pH 7.0, 37 °C
[5] = test system: CCN1CCN(C(=O)N[C@@H](C(=O)N[C@@H]2C(=O)N3[C@@H]2SC(C)(C)[C@@H]3C(=O)O)c2ccccc2)C(=O)C1=O; test: purified protein; details: 100 mM sodium phosphate, pH 7.0, 37 °C
[6] = test system: CO/N=C(\C(=O)N[C@@H]1C(=O)N2C(C(=O)[O-])=C(C[N+]3(C)CCCC3)CS[C@H]12)c1csc(N)n1; test: purified protein; details: 100 mM sodium phosphate, pH 7.0, 37 °C
[7] = test system: C[C@@H](O)[C@H]1C(=O)N2C(C(=O)O)=C(SCCN=CN)C[C@H]12; test: purified protein; details: 100 mM sodium phosphate, pH 7.0, 37 °C
[8] = test system: C[C@@H](O)[C@H]1C(=O)N2C(C(=O)O)=C(S[C@@H]3CN[C@H](C(=O)N(C)C)C3)[C@H](C)[C@H]12; test: purified protein; details: 100 mM sodium phosphate, pH 7.0, 37 °C
[9] = test system: Cc1nnc(SCC2=C(C(=O)O)N3C(=O)[C@@H](NC(=O)Cn4cnnn4)[C@H]3SC2)s1; test: purified protein; details: 100 mM sodium phosphate, pH 7.0, 37 °C
KPC-3 = biological target: T5, KPC-3 (Klebsiella pneumoniae, UniProt Q93DC4); test: isothermal titration calorimetry; type: binding
T5 construct: gene bla; signal peptide (1-29) removed, KPC30-293 in pET28a, E. coli BL21 Rosetta-gami DE3, His-tag cut with thrombin
Source text: isothermal titration calorimetry on KPC-3

T5 sequence (Q93DC4 30-293 limits assumed): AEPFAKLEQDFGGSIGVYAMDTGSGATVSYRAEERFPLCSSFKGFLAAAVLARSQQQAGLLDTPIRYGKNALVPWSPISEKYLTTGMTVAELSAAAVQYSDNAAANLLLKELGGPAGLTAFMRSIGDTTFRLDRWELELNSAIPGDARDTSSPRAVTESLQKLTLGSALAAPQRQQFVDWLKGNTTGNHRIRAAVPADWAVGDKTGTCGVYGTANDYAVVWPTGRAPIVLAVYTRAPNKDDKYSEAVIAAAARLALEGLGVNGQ

## CCN1CCN(C(=O)N[C@@H](C(=O)N[C@@H]2C(=O)N3[C@@H]2SC(C)(C)[C@@H]3C(=O)O)c2ccccc2)C(=O)C1=O [piperacillin]
[1]; read-out: MIC (mg/L)^a / PIP
  MIC: > 256 mg/L
[2]; read-out: MIC (mg/L) ^a / PIP
  MIC: > 256 mg/L
[3]; read-out: MIC (mg/L)^a / PIP
  MIC: > 256 mg/L
E. coli DH10B; read-out: MIC (mg/L)^a / PIP
  MIC: 2 mg/L (≈ 3.86 µM)

## C[C@@H](O)[C@H]1C(=O)N2C(C(=O)O)=C(SCCN=CN)C[C@H]12 [imipenem]
[1]; read-out: MIC (mg/L)^a / IPM
  MIC: 1 mg/L (≈ 3.34 µM)
[2]; read-out: MIC (mg/L) ^a / IPM
  MIC: 2 mg/L (≈ 6.68 µM)
[3]; read-out: MIC (mg/L)^a / IPM
  MIC: 16 mg/L (≈ 53.4 µM)
E. coli DH10B; read-out: MIC (mg/L)^a / IPM
  MIC: 0.25 mg/L (≈ 0.835 µM)

## CO/N=C(\C(=O)N[C@@H]1C(=O)N2C(C(=O)O)=C(CSc3nc(=O)c(O)nn3C)CS[C@H]12)c1csc(N)n1 [ceftriaxone]
E. coli DH10B; read-out: MIC (mg/L)^a / CRO
  MIC: < 0.125 mg/L

## KPC-2 (Klebsiella pneumoniae)
[4]
  Km: 590 ± 48 µM
  kcat: 3.27 ± 0.27 s⁻¹
  kcat/Km: 5500 ± 400 M⁻¹ s⁻¹
[5]
  Km: 793 ± 34 µM
  kcat: 7.7 ± 0.5 s⁻¹
  kcat/Km: 9700 ± 900 M⁻¹ s⁻¹
[6]
  Km: 310 ± 23 µM
  kcat: 4.7 ± 0.1 s⁻¹
  kcat/Km: 15000 ± 1200 M⁻¹ s⁻¹
[7]
  Km: 98 ± 9 µM
  kcat: 28 ± 2 s⁻¹
  kcat/Km: 290000 ± 10000 M⁻¹ s⁻¹
[8]
  Km: 16 ± 1 µM
  kcat: 8 ± 0.5 s⁻¹
  kcat/Km: 500000 ± 50000 M⁻¹ s⁻¹
[9]
  Km: 110 ± 3 µM
  kcat: 65 ± 5 s⁻¹
  kcat/Km: 590000 ± 41000 M⁻¹ s⁻¹

## KPC-3 (Klebsiella pneumoniae)
[4]
  Km: 233 ± 19 µM
  kcat: 2.7 ± 0.2 s⁻¹
  kcat/Km: 11000 ± 1200 M⁻¹ s⁻¹
[5]
  Km: 1,097 ± 84 μM
  kcat: 5.2 ± 0.1 s⁻¹
  kcat/Km: 4800 ± 400 M⁻¹ s⁻¹
[6]
  Km: 512 ± 48 µM
  kcat: 4.5 ± 0.3 s⁻¹
  kcat/Km: 8900 ± 400 M⁻¹ s⁻¹
[7]
  Km: 64 ± 3 µM
  kcat: 33 ± 0.7 s⁻¹
  kcat/Km: 520000 ± 34000 M⁻¹ s⁻¹
[8]
  Km: 24 ± 1 µM
  kcat: 5.7 ± 0.4 s⁻¹
  kcat/Km: 230000 ± 16000 M⁻¹ s⁻¹
[9]
  Km: 368 ± 16 µM
  kcat: 61 ± 2 s⁻¹
  kcat/Km: 170000 ± 13000 M⁻¹ s⁻¹

## C[C@H]1[C@H](NC(=O)/C(=N\OC(C)(C)C(=O)O)c2csc(N)n2)C(=O)N1S(=O)(=O)O [aztreonam]
E. coli DH10B; read-out: MIC (mg/L)^a / ATM
  MIC: < 0.125 mg/L

## CO/N=C(\C(=O)N[C@@H]1C(=O)N2C(C(=O)[O-])=C(C[N+]3(C)CCCC3)CS[C@H]12)c1csc(N)n1 [cefepime]
[1]; read-out: MIC (mg/L)^a / FEP
  MIC: 4 mg/L (≈ 8.32 µM)
[2]; read-out: MIC (mg/L) ^a / FEP
  MIC: 8 mg/L (≈ 16.6 µM)
[3]; read-out: MIC (mg/L)^a / FEP
  MIC: > 256 mg/L
E. coli DH10B; read-out: MIC (mg/L)^a / FEP
  MIC: < 0.125 mg/L

## CC(C)(O/N=C(\C(=O)N[C@@H]1C(=O)N2C(C(=O)[O-])=C(C[n+]3ccccc3)CS[C@H]12)c1csc(N)n1)C(=O)O [ceftazidime]
[1]; read-out: MIC (mg/L)^a / CAZ
  MIC: 8 mg/L (≈ 14.6 µM)
[2]; read-out: MIC (mg/L) ^a / CAZ
  MIC: 64 mg/L (≈ 117 µM)
[3]; read-out: MIC (mg/L)^a / CAZ
  MIC: > 256 mg/L
E. coli DH10B; read-out: MIC (mg/L)^a / CAZ
  MIC: 0.25 mg/L (≈ 0.457 µM)

## Cc1nnc(SCC2=C(C(=O)O)N3C(=O)[C@@H](NC(=O)Cn4cnnn4)[C@H]3SC2)s1 [cefazolin]
[1]; read-out: MIC (mg/L)^a / CZO
  MIC: 256 mg/L (≈ 563 µM)
[2]; read-out: MIC (mg/L) ^a / CZO
  MIC: 256 mg/L (≈ 563 µM)
[3]; read-out: MIC (mg/L)^a / CZO
  MIC: > 256 mg/L
E. coli DH10B; read-out: MIC (mg/L)^a / CZO
  MIC: 2 mg/L (≈ 4.4 µM)

## NC(=O)[C@@H]1CC[C@@H]2CN1C(=O)N2OS(=O)(=O)O [avibactam]
KPC-3
  Kd: 7.49 nM

## C[C@@H](O)[C@H]1C(=O)N2C(C(=O)O)=C(S[C@@H]3CN[C@H](C(=O)N(C)C)C3)[C@H](C)[C@H]12 [meropenem]
[1]; read-out: MIC (mg/L)^a / MEM
  MIC: 0.25 mg/L (≈ 0.652 µM)
[2]; read-out: MIC (mg/L) ^a / MEM
  MIC: 0.25 mg/L (≈ 0.652 µM)
[3]; read-out: MIC (mg/L)^a / MEM
  MIC: > 4 mg/L
E. coli DH10B; read-out: MIC (mg/L)^a / MEM
  MIC: < 0.0312 mg/L

## CO/N=C(\C(=O)N[C@@H]1C(=O)N2C(C(=O)O)=C(COC(N)=O)CS[C@H]12)c1ccco1 [cefuroxime]
[1]; read-out: MIC (mg/L)^a / CXM
  MIC: > 256 mg/L
[2]; read-out: MIC (mg/L) ^a / CXM
  MIC: > 256 mg/L
[3]; read-out: MIC (mg/L)^a / CXM
  MIC: > 256 mg/L
E. coli DH10B; read-out: MIC (mg/L)^a / CXM
  MIC: 4 mg/L (≈ 9.43 µM)

From paper PMC12013264 (mSystems, 2025)
